Test results taken from US20250145694A1 (GUANGDONG FEIPENG BIOLOGICAL, published 2025).

Biological target: T1, CTNI quality control recombinant antigen (human, UniProt P19429 1-210, limits assumed)
T1 construct: Recombinant antigen produced by the applicant; also called CTNI quality control recombinant protein (antigen produced by the company); cardiac troponin I
Assay: BLI, antibody on AMC sensor, cTnI in solution
Description: With an AMC sensor, the purified antibody was diluted to 10 μg/ml with PBST, and CTNI quality control recombinant protein (antigen produced by the company) was gradient diluted with PBST to 769.2 nmol/ml, 384.6 nmol/ml, 192.3 nmol/ml, 96.2 nmol/ml, 48.1 nmol/ml, 24 nmol/ml, 12 nmol/ml, and 0 nmol/ml.

T1 sequence (P19429 whole entry): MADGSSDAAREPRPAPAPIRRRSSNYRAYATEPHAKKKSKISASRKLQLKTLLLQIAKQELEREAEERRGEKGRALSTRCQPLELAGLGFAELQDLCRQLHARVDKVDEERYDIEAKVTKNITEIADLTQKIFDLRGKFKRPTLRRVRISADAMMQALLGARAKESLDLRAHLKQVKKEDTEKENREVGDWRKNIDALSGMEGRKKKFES

| Binder | Kd [nM] | koff [s⁻¹] | kon [M⁻¹ s⁻¹] |
| --- | --- | --- | --- |
| Mutation 1-17 (antibody, assembled FR/CDR/constant) heavy: EVQMVESGGGLLKPGGSLKLSCAASGFTFSNYAMSWVRQTPEKRLEWVATISSGGSYSFYPDSVKGRFTISRDNAKNTLYLQMLSLRSEDTAMYYCARRDNYYGSSFMDYWGQGSSVTVSSAKTTPPSVYPLAPGSAAQTNSMVTLGCLVKGYFPEPVTVTWNSGSLSSGVHTFPAVLQSDLYTLSSSVTVPSSTWPSQTVTCNVAHPASSTKVDKKIVPRDCGCKPCICTVPEVSSVFIFPPKPKDVLTITLTPKVTCVVVDISKDDPEVQFSWFVDDVEVHTAQTKPREEQFNSTFRSVSELPIMHQDWLNGKEFKCRVNSAAFPAPIEKTISKTKGRPKAPQVYTIPPPKEQMAKDKVSLTCMITNFFPEDITVEWQWNGQPAENYKNTQPIMDTDGSYFVYSKLNVQKSNWEAGNTFTCSVLHEGLHNHHTEKSLSHSPG light: DIQMTQTSSSLSASLGDRVTISCRASQDITNYLNWYQQKPDGTIKLLIYYTSRLHSGVSSRFSGSGSGTDYSLTISNLEQEDIATYFCQQGHTIPLTFDTGTKLELKRADAAPTVSIFPPSSEQLTSGGASVVCFLNNFYPKDINVKWKIDGSERQNGVLNSWTDQDSKDSTYSMSSTLTLTKDEYERHNSYTCEATHKTSTSPIVKSFNRNEC | 9.22 | 0.000336 | 36400 |
| Mutation 1-20 (antibody, assembled FR/CDR/constant) heavy: EVQMVESGGGLLKPGGSLKLSCAASGFTYSNYAMSWVRQTPEKRLEWVATISSGGSYSYYPDSVKGRFTISRDNAKNTLYLQMLSLRSEDTAMYYCARRDNYFGSSFMDYWGQGSSVTVSSAKTTPPSVYPLAPGSAAQTNSMVTLGCLVKGYFPEPVTVTWNSGSLSSGVHTFPAVLQSDLYTLSSSVTVPSSTWPSQTVTCNVAHPASSTKVDKKIVPRDCGCKPCICTVPEVSSVFIFPPKPKDVLTITLTPKVTCVVVDISKDDPEVQFSWFVDDVEVHTAQTKPREEQFNSTFRSVSELPIMHQDWLNGKEFKCRVNSAAFPAPIEKTISKTKGRPKAPQVYTIPPPKEQMAKDKVSLTCMITNFFPEDITVEWQWNGQPAENYKNTQPIMDTDGSYFVYSKLNVQKSNWEAGNTFTCSVLHEGLHNHHTEKSLSHSPG light: DIQMTQTSSSLSASLGDRVTISCRASQDITNYLNWYQQKPDGTIKLLIYYTSRLHSGVSSRFSGSGSGTDYSLTISNLEQEDIATYFCQQGNTLPLTFDTGTKLELKRADAAPTVSIFPPSSEQLTSGGASVVCFLNNFYPKDINVKWKIDGSERQNGVLNSWTDQDSKDSTYSMSSTLTLTKDEYERHNSYTCEATHKTSTSPIVKSFNRNEC | 2.87 | 0.000172 | 59800 |
| Mutation 1-18 (antibody, assembled FR/CDR/constant) heavy: EVQMVESGGGLLKPGGSLKLSCAASGFTYSNYAMSWVRQTPEKRLEWVATISSGGSYSFYPDSVKGRFTISRDNAKNTLYLQMLSLRSEDTAMYYCARRDNYPGSSFMDYWGQGSSVTVSSAKTTPPSVYPLAPGSAAQTNSMVTLGCLVKGYFPEPVTVTWNSGSLSSGVHTFPAVLQSDLYTLSSSVTVPSSTWPSQTVTCNVAHPASSTKVDKKIVPRDCGCKPCICTVPEVSSVFIFPPKPKDVLTITLTPKVTCVVVDISKDDPEVQFSWFVDDVEVHTAQTKPREEQFNSTFRSVSELPIMHQDWLNGKEFKCRVNSAAFPAPIEKTISKTKGRPKAPQVYTIPPPKEQMAKDKVSLTCMITNFFPEDITVEWQWNGQPAENYKNTQPIMDTDGSYFVYSKLNVQKSNWEAGNTFTCSVLHEGLHNHHTEKSLSHSPG light: DIQMTQTSSSLSASLGDRVTISCRASQEITNYLNWYQQKPDGTIKLLIYYTSRIHSGVSSRFSGSGSGTDYSLTISNLEQEDIATYFCQQGNTLPLTFDTGTKLELKRADAAPTVSIFPPSSEQLTSGGASVVCFLNNFYPKDINVKWKIDGSERQNGVLNSWTDQDSKDSTYSMSSTLTLTKDEYERHNSYTCEATHKTSTSPIVKSFNRNEC | 4.4 | 0.000253 | 57500 |
| Mutation 1-19 (antibody, assembled FR/CDR/constant) heavy: EVQMVESGGGLLKPGGSLKLSCAASGFTFSNYAMSWVRQTPEKRLEWVATISSGGSYSYYPDSVKGRFTISRDNAKNTLYLQMLSLRSEDTAMYYCARRDNYFGSTFMDYWGQGSSVTVSSAKTTPPSVYPLAPGSAAQTNSMVTLGCLVKGYFPEPVTVTWNSGSLSSGVHTFPAVLQSDLYTLSSSVTVPSSTWPSQTVTCNVAHPASSTKVDKKIVPRDCGCKPCICTVPEVSSVFIFPPKPKDVLTITLTPKVTCVVVDISKDDPEVQFSWFVDDVEVHTAQTKPREEQFNSTFRSVSELPIMHQDWLNGKEFKCRVNSAAFPAPIEKTISKTKGRPKAPQVYTIPPPKEQMAKDKVSLTCMITNFFPEDITVEWQWNGQPAENYKNTQPIMDTDGSYFVYSKLNVQKSNWEAGNTFTCSVLHEGLHNHHTEKSLSHSPG light: DIQMTQTSSSLSASLGDRVTISCRASQEITNYLNWYQQKPDGTIKLLIYYTSRLHSGVSSRFSGSGSGTDYSLTISNLEQEDIATYFCQQGHTLPLTFDTGTKLELKRADAAPTVSIFPPSSEQLTSGGASVVCFLNNFYPKDINVKWKIDGSERQNGVLNSWTDQDSKDSTYSMSSTLTLTKDEYERHNSYTCEATHKTSTSPIVKSFNRNEC | 8.19 | 0.000772 | 94300 |
| Mutation 1-21 (antibody, assembled FR/CDR/constant) heavy: EVQMVESGGGLLKPGGSLKLSCAASGFTFSNYAMSWVRQTPEKRLEWVATISSGGSYSFYPDSVKGRFTISRDNAKNTLYLQMLSLRSEDTAMYYCARRDNYYGSTFMDYWGQGSSVTVSSAKTTPPSVYPLAPGSAAQTNSMVTLGCLVKGYFPEPVTVTWNSGSLSSGVHTFPAVLQSDLYTLSSSVTVPSSTWPSQTVTCNVAHPASSTKVDKKIVPRDCGCKPCICTVPEVSSVFIFPPKPKDVLTITLTPKVTCVVVDISKDDPEVQFSWFVDDVEVHTAQTKPREEQFNSTFRSVSELPIMHQDWLNGKEFKCRVNSAAFPAPIEKTISKTKGRPKAPQVYTIPPPKEQMAKDKVSLTCMITNFFPEDITVEWQWNGQPAENYKNTQPIMDTDGSYFVYSKLNVQKSNWEAGNTFTCSVLHEGLHNHHTEKSLSHSPG light: DIQMTQTSSSLSASLGDRVTISCRASQDITNYLNWYQQKPDGTIKLLIYYTSRIHSGVSSRFSGSGSGTDYSLTISNLEQEDIATYFCQQGHTLPLTFDTGTKLELKRADAAPTVSIFPPSSEQLTSGGASVVCFLNNFYPKDINVKWKIDGSERQNGVLNSWTDQDSKDSTYSMSSTLTLTKDEYERHNSYTCEATHKTSTSPIVKSFNRNEC | 9.55 | 0.000632 | 66200 |

Further lines, results first:

| Kd [nM] | koff [s⁻¹] | kon [M⁻¹ s⁻¹] | Binder |
| --- | --- | --- | --- |
| 4.31 | 0.000336 | 77900 | Mutation 1-23 (antibody, assembled FR/CDR/constant) heavy: EVQMVESGGGLLKPGGSLKLSCAASGFTFSNYAMSWVRQTPEKRLEWVATISSGGSYSYYPDSVKGRFTISRDNAKNTLYLQMLSLRSEDTAMYYCARRDNYPGSTFMDYWGQGSSVTVSSAKTTPPSVYPLAPGSAAQTNSMVTLGCLVKGYFPEPVTVTWNSGSLSSGVHTFPAVLQSDLYTLSSSVTVPSSTWPSQTVTCNVAHPASSTKVDKKIVPRDCGCKPCICTVPEVSSVFIFPPKPKDVLTITLTPKVTCVVVDISKDDPEVQFSWFVDDVEVHTAQTKPREEQFNSTFRSVSELPIMHQDWLNGKEFKCRVNSAAFPAPIEKTISKTKGRPKAPQVYTIPPPKEQMAKDKVSLTCMITNFFPEDITVEWQWNGQPAENYKNTQPIMDTDGSYFVYSKLNVQKSNWEAGNTFTCSVLHEGLHNHHTEKSLSHSPG light: DIQMTQTSSSLSASLGDRVTISCRASQEITNYLNWYQQKPDGTIKLLIYYTSRIHSGVSSRFSGSGSGTDYSLTISNLEQEDIATYFCQQGHTIPLTFDTGTKLELKRADAAPTVSIFPPSSEQLTSGGASVVCFLNNFYPKDINVKWKIDGSERQNGVLNSWTDQDSKDSTYSMSSTLTLTKDEYERHNSYTCEATHKTSTSPIVKSFNRNEC |
| 9.07 | 0.000312 | 34400 | Mutation 1-22 (antibody, assembled FR/CDR/constant) heavy: EVQMVESGGGLLKPGGSLKLSCAASGFTYSNYAMSWVRQTPEKRLEWVATISSGGSYSFYPDSVKGRFTISRDNAKNTLYLQMLSLRSEDTAMYYCARRDNYYGSSFMDYWGQGSSVTVSSAKTTPPSVYPLAPGSAAQTNSMVTLGCLVKGYFPEPVTVTWNSGSLSSGVHTFPAVLQSDLYTLSSSVTVPSSTWPSQTVTCNVAHPASSTKVDKKIVPRDCGCKPCICTVPEVSSVFIFPPKPKDVLTITLTPKVTCVVVDISKDDPEVQFSWFVDDVEVHTAQTKPREEQFNSTFRSVSELPIMHQDWLNGKEFKCRVNSAAFPAPIEKTISKTKGRPKAPQVYTIPPPKEQMAKDKVSLTCMITNFFPEDITVEWQWNGQPAENYKNTQPIMDTDGSYFVYSKLNVQKSNWEAGNTFTCSVLHEGLHNHHTEKSLSHSPG light: DIQMTQTSSSLSASLGDRVTISCRASQDITNYLNWYQQKPDGTIKLLIYYTSRIHSGVSSRFSGSGSGTDYSLTISNLEQEDIATYFCQQGHTIPLTFDTGTKLELKRADAAPTVSIFPPSSEQLTSGGASVVCFLNNFYPKDINVKWKIDGSERQNGVLNSWTDQDSKDSTYSMSSTLTLTKDEYERHNSYTCEATHKTSTSPIVKSFNRNEC |
| 5.37 | 0.000248 | 46100 | Mutation 1-24 (antibody, assembled FR/CDR/constant) heavy: EVQMVESGGGLLKPGGSLKLSCAASGFTYSNYAMSWVRQTPEKRLEWVATISSGGSYSYYPDSVKGRFTISRDNAKNTLYLQMLSLRSEDTAMYYCARRDNYFGSTFMDYWGQGSSVTVSSAKTTPPSVYPLAPGSAAQTNSMVTLGCLVKGYFPEPVTVTWNSGSLSSGVHTFPAVLQSDLYTLSSSVTVPSSTWPSQTVTCNVAHPASSTKVDKKIVPRDCGCKPCICTVPEVSSVFIFPPKPKDVLTITLTPKVTCVVVDISKDDPEVQFSWFVDDVEVHTAQTKPREEQFNSTFRSVSELPIMHQDWLNGKEFKCRVNSAAFPAPIEKTISKTKGRPKAPQVYTIPPPKEQMAKDKVSLTCMITNFFPEDITVEWQWNGQPAENYKNTQPIMDTDGSYFVYSKLNVQKSNWEAGNTFTCSVLHEGLHNHHTEKSLSHSPG light: DIQMTQTSSSLSASLGDRVTISCRASQEITNYLNWYQQKPDGTIKLLIYYTSRIHSGVSSRFSGSGSGTDYSLTISNLEQEDIATYFCQQGHTIPLTFDTGTKLELKRADAAPTVSIFPPSSEQLTSGGASVVCFLNNFYPKDINVKWKIDGSERQNGVLNSWTDQDSKDSTYSMSSTLTLTKDEYERHNSYTCEATHKTSTSPIVKSFNRNEC |
